These results are taken from publication PMC4965137, “Temporal Shift of Circadian-Mediated Gene Expression and Carbon Fixation Contributes to Biomass Heterosis in Maize Hybrids”.

Settings in all cases: protein: recombinant; tags: MBP (pMAL-C2); label: 32P 5' end; blunt
Data set [1] has as its target T1, rZmCCA1b (Zea mays B73, UniProt K7U156 1-720). The data set can be described thus: EMSA; self-competed by 25-100X unlabeled DNA; 25 mM HEPES-KOH pH 7.5, 75 mM KCl, 2.5 mM DTT, 10% glycerol, 1.25 ng poly-dIdC; 20 fmol probe, 0.5-2 pmol protein; 10 min room temperature then 20 min on ice with probe; 5% native PAGE. (In general: A gel shift assay detects complexes by their altered migration in electrophoresis.)

A further data set addresses rZmCCA1a (Zea mays B73, UniProt B6SPA3 129-718). The data set can be described thus: EMSA; 1 pmol protein; 25 mM HEPES-KOH pH 7.5, 75 mM KCl, 2.5 mM DTT, 10% glycerol, 1.25 ng poly-dIdC; 20 fmol probe, 0.5-2 pmol protein; 10 min room temperature then 20 min on ice with probe; 5% native PAGE.
Data set [2] addresses T1, rZmCCA1b. Put plainly: EMSA; 25 mM HEPES-KOH pH 7.5, 75 mM KCl, 2.5 mM DTT, 10% glycerol, 1.25 ng poly-dIdC; 20 fmol probe, 0.5-2 pmol protein; 10 min room temperature then 20 min on ice with probe; 5% native PAGE.

T1 sequence (K7U156 entry or part of it): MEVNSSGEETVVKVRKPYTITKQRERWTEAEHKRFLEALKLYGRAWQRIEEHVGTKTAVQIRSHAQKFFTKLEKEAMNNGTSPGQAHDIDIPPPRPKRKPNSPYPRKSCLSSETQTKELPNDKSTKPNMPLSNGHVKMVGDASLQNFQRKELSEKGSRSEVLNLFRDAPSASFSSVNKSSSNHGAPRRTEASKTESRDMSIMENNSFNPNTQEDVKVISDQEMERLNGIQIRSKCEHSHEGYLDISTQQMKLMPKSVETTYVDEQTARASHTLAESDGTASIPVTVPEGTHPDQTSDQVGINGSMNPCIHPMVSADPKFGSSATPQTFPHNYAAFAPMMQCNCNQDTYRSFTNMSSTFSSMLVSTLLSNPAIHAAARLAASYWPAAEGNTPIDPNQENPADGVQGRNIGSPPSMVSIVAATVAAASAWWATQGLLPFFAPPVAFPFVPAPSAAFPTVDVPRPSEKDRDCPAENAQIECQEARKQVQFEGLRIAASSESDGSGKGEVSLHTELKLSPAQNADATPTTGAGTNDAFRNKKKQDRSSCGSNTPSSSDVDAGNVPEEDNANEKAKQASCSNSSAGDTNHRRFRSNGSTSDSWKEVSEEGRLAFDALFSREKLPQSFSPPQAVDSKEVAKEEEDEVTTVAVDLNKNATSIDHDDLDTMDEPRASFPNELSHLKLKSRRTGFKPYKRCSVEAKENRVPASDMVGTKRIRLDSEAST
Chain of rZmCCA1a (B6SPA3 entry or part of it): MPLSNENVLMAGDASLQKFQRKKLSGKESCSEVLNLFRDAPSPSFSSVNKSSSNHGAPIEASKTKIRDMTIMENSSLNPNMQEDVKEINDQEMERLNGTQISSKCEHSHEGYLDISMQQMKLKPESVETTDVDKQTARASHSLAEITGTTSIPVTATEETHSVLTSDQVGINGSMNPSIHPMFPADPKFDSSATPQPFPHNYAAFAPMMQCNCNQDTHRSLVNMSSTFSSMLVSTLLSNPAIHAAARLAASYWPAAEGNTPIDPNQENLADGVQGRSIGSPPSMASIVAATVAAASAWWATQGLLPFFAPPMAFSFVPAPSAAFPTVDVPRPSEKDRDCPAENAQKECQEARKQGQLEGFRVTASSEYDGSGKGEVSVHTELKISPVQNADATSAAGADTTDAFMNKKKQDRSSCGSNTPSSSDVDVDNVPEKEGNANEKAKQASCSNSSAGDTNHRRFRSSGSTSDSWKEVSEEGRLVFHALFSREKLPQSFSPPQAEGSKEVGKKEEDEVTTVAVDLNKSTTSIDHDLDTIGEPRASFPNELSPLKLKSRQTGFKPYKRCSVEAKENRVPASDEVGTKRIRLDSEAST

B1: ZmPRR59 promoter probe (dsDNA)
DNA 1: CTCTTTAAAAAAAAATCTTCATTTAAGG
DNA 2: CCTTAAATGAAGATTTTTTTTTAAAGAG
As to B1, the binding result was “binds” with rZmCCA1b [1] and “no binding” with rZmCCA1a.

B2: gi1 promoter probe (dsDNA)
DNA 1: GCATCGCGGAAAAAATCTTTTTCTCGCC
DNA 2: GGCGAGAAAAAGATTTTTTCCGCGATGC
For the molecule B2, the binding result is listed as “binds” with rZmCCA1b [1] and “no binding” in the data set with rZmCCA1a.

B3: GRMZM2G033885 promoter probe (dsDNA)
DNA 1: TCAGCACTGAAAAATATCTGAGGTTGAAA
DNA 2: TTTCAACCTCAGATATTTTTCAGTGCTGA
On to B3, for which the binding result with rZmCCA1b [2] was “binds”.

B4: ZmTOC1a promoter probe (dsDNA)
DNA 1: GGCGAGTTTTAGATATTTTCACCCGCTCC
DNA 2: GGAGCGGGTGAAAATATCTAAAACTCGCC
Consider B4, for which the binding result is given as “binds” in the data set with rZmCCA1b [1] and “no binding” with rZmCCA1a.

B5: GRMZM2G129513 promoter probe (dsDNA)
DNA 1: ATTAAATATAAAAATATCTAAATTCATAA
DNA 2: TTATGAATTTAGATATTTTTATATTTAAT
In the case of B5, the binding result in the data set with rZmCCA1b [2] was “binds”.
